Data from PMC7909569, “Unique Cellular and Biochemical Features of Human Mitochondrial Peroxiredoxin 3 Establish the Molecular Basis for Its Specific Reaction with Thiostrepton” (Antioxidants, 2021).
Changes are numbered by the printed parent chain. Numbers in names are those of the source.

Tests used:
[1] = molecular target: the molecule itself; test: SEC-MALS; engineered dimers, reduced (10 mM DTT) or oxidized (1.2 equivalents H2O2), 2 mg/mL, all pH values tested (7.0, 7.5, 8.0)
[2] = molecular target: the molecule itself; test: SEC-MALS; peroxide titration: pre-reduced PRX2 (100 µM), pH 7.4, 100 µM H2O2 (1 equivalence, fully oxidized)
[3] = molecular target: the molecule itself; test: SEC-MALS; oxidized samples (1.2 equivalents of H2O2), 2 mg/mL PRX, 50 mM HEPES, 100 mM NaCl, pH 8.0; (do)decamer against dimers
[4] = molecular target: the molecule itself; test: SEC-MALS; peroxide titration: pre-reduced PRX3 (93 µM), DTT removed, pH 8.0, 0 H2O2 (fully reduced)
[5] = molecular target: the molecule itself; test: SEC-MALS; oxidized samples (1.2 equivalents of H2O2), 2 mg/mL PRX, 50 mM HEPES, 100 mM NaCl, pH 7.5; (do)decamer against dimers
[6] = molecular target: the molecule itself; test: SEC-MALS; reduced samples (10 mM DTT), 2 mg/mL (90–93 µM) PRX, 50 mM HEPES, 100 mM NaCl, pH 7.0, 7.5 or 8.0 (PRX3 only pH 7.5 and 8.0); TSK Gel 4000 SW column run without reducing agents; (do)decamer against dimers

B1: PRX2-T82E (enzyme, human, UniProt P32119 1-198, looked up)
chain: MASGNARIGKPAPDFKATAVVDGAFKEVKLSDYKGKYVVLFFYPLDFTFVCPTEIIAFSNRAEDFRKLGCEVLGVSVDSQFEHLAWINTPRKEGGLGPLNIPLLADVTRRLSEDYGVLKTDEGIAYRGLFIIDGKGVLRQITVNDLPVGRSVDEALRLVQAFQYTDEHGEVCPAGWKPGSDTIKPNVDDSKEYFSKHN
notes: peroxiredoxin 2 (PRX2), human, with T82E in the dimer-dimer interface; The methods call the N-terminal His-tag non-cleavable; also called engineered dimer of PRX2; dimeric version of PRX2
[1]
  stoichiometry N: 2

B2: Wild-type human PRX2 (enzyme, UniProt P32119 1-198, looked up)
chain: B1 chain with E82T
notes: peroxiredoxin 2 (PRX2), human, wild type, untagged, no extra residues; Tested reduced (DTT) and oxidised to the disulfide (H2O2); also called peroxiredoxin 2; WT PRX2
[2]
  stoichiometry N: 10
[3]
  stoichiometry N: 2

B3: Untagged wild-type PRX3 (residues 62–256) (enzyme, human, UniProt P30048 62-256, looked up)
chain: APAVTQHAPYFKGTAVVNGEFKDLSLDDFKGKYLVLFFYPLDFTFVCPTEIVAFSDKANEFHDVNCEVVAVSVDSHFSHLAWINTPRKNGGLGHMNIALLSDLTKQISRDYGVLLEGSGLALRGLFIIDPNGVIKHLSVNDLPVGRSVEETLRLVKAFQYVETHGEVCPANWTPDSPTIKPSPAASKEYFQKVNQ
notes: peroxiredoxin 3 (PRX3), human, mitochondrial, residues 62–256, wild type, untagged; Stored oxidised to the disulfide (1.5 equivalents H2O2); tested reduced, partially oxidised and oxidised; also called peroxiredoxin 3; mitochondrial peroxiredoxin 3; not shown: Intein, N-terminal, cleaved
[4]
  stoichiometry N: 12
[5]
  stoichiometry N: 2

B4: PRX3-S139E/A142E (enzyme, human, UniProt P30048 62-256, looked up)
chain: B3 chain with S78E, A81E
notes: peroxiredoxin 3 (PRX3), human, with S139E and A142E in the dimer-dimer interface; The wild-type construct is residues 62–256; The methods call the N-terminal His-tag non-cleavable; also called engineered dimer of PRX3; PRX3 EE
[1]
  stoichiometry N: 2

B5: Wild-type human PRX1 (enzyme, UniProt Q06830 1-199, looked up)
chain: MSSGNAKIGHPAPNFKATAVMPDGQFKDISLSDYKGKYVVFFFYPLDFTFVCPTEIIAFSDRAEEFKKLNCQVIGASVDSHFCHLAWVNTPKKQGGLGPMNIPLVSDPKRTIAQDYGVLKADEGISFRGLFIIDDKGILRQITVNDLPVGRSVDETLRLVQAFQFTDKHGEVCPAGWKPGSDTIKPDVQKSKEYFSKQK
notes: peroxiredoxin 1 (PRX1), human, wild type, untagged, no extra residues; Tested reduced (DTT) and oxidised to the disulfide (H2O2); also called peroxiredoxin 1; WT PRX1
[6]
  stoichiometry N: 10

B6: PRX1 C83E (enzyme, human, UniProt Q06830 1-199, looked up)
chain: B5 chain with C83E
notes: peroxiredoxin 1 (PRX1), human, with C83E in the dimer-dimer interface, untagged; also called engineered dimer of PRX1; dimeric version of PRX1
[1]
  stoichiometry N: 2
